Substrate in this series: N[C@@H](CC(=O)O)C(=O)O
Kind of series: purified protein. The conditions noted are these: 300 mM Na+ outside, pH 7, 10 mM potassium phosphate, valinomycin, 300 mM KCl in lumen, mixed membrane orientation, no sybody, labelled compound.

B1: GltTk (Thermococcus kodakarensis KOD1) (protein)
chain: MGKSLLRRYLDYPVLWKILWGLVLGAVFGLIAGHFGYAGAVKTYIKPFGDLFVRLLKMLVMPIVLASLVVGAASISPARLGRVGVKIVVYYLATSAMAVFFGLIVGRLFNVGANVNLGSGTGKAIEAQPPSLVQTLLNIVPTNPFASLAKGEVLPVIFFAIILGIAITYLMNRNEERVRKSAETLLRVFDGLAEAMYLIVGGVMQYAPIGVFALIAYVMAEQGVRVVGPLAKVVGAVYTGLFLQIVITYFILLKVFGIDPIKFIRKAKDAMITAFVTRSSSGTLPVTMRVAEEEMGVDKGIFSFTLPLGATINMDGTALYQGVTVLFVANAIGHPLTLGQQLVVVLTAVLASIGTAGVPGAGAIMLAMVLQSVGLDLTPGSPVALAYAMILGIDAILDMGRTMVNVTGDLAGTVIVAKTEKELDESKWIS
Take B1: the Michaelis-Menten constant (Km) was determined as 0.70 ± 0.22 µM and the kcat came to 0.895 s⁻¹.

The values are drawn from article PMC8211817.
